PMC9060813, “Protein with negative surface charge distribution, Bnr1, shows characteristics of a DNA‐mimic protein and may be involved in the adaptation of Burkholderia cenocepacia” (MicrobiologyOpen, 2022)

Target: the molecule itself
Assay: SEC-MALS; 800 micrograms of purified rBCAS0292 on S75 16/60 in 50 mM Tris-HCl, 150 mM NaCl, 5% glycerol, pH 7.5; DAWN MALS and Optilab rEX; reducing and oxidizing conditions

B1: recombinant BCAS0292 (Burkholderia negatively surface-charged regulatory protein 1), His-tagged (natural protein, Burkholderia cenocepacia, UniProt B4EQ58 1-179, looked up)
chain: MSGVRCDGLAIVDAVTLLSAYPDASRDADAPTVIDGRHIYVLRPGDAGQVGHNDNRLFAGLSPGDQLHLRETALALRAEVTVLFIRFALKDAGIVAPIEAEIRDAATPVPDGDDLLHPSCRPMKDHFWRSEVLAPGITTCTADFAVLDRDGAVSGYFRWETAIEIAGSRPDTKQPGVEP
notes: BCAS0292 protein (Bnr1), PixA family, Burkholderia cenocepacia; calculated molecular weight 19.2 kDa; no cleavage of the tag is told; also called rBCAS0292; rBnr1; source: E. coli BL21 Star (DE3), purified (lysis in 6 M guanidine-HCl, HisPur Ni-NTA, SEC)
For B1, the “stoichiometry N” value was 2.
